Experimental data reported in publication PMC5944358 (The Biochemical journal, 2018).
Numbering of substitutions follows the chain as printed. Names and notes keep the numbering of the source.

B1: Microvirin (MVN) (natural protein)
chain: MPNFSHTCSSINYDPDSTILSAECQARDGEWLPTELRLSDHIGNIDGELQFGDQNFQETCQDCHLEFGDGEQSVWLVCTCQTMDGEWKSTQILLDSQIDNNDSQLEIG
B2: cyanovirin-N (CVN) (natural protein)
chain: LGKFSQTCYNSAIQGSVLTSTCERTNGGYNTSSIDLNSVIENVDGSLKWQPSNFIETCRNTQLAGSSELAAECKTRAQQFVSTKINLDDHIANIDGTLKYE
B3: MVN_Q81K (natural protein)
chain: B1 chain with Q81K
B4: MVN(Q81K/M83R) (natural protein)
chain: B1 chain with Q81K, M83R
B5: MVN_G43E (natural protein)
chain: B1 chain with G43E
B6: MVN_G43E/G85Q (natural protein)
chain: B1 chain with G43E, G85Q
B7: MVN_G43E/M83R (natural protein)
chain: B1 chain with G43E, M83R
B8: MVN_G43E/Q81K (natural protein)
chain: B1 chain with G43E, Q81K
B9: MVN_G43E/Q81K/M83R/G85Q (natural protein)
chain: B1 chain with G43E, Q81K, M83R, G85Q
B10: MVN_G85Q (natural protein)
chain: B1 chain with G85Q
B11: MVN_M83R (natural protein)
chain: B1 chain with M83R
B12: MVN_Q81K/G85Q (natural protein)
chain: B1 chain with Q81K, G85Q
B13: MVN_Q81K/M83R/G85Q (natural protein)
chain: B1 chain with Q81K, M83R, G85Q

molecular target: T1, HIV-1 YU2 gp120 (HIV-1 YU2, UniProt P35961 32-498); test: SPR

In order of rising Kd:
1. B2  8.65 nM
2. B1  120 nM

For B2, the koff was 1.48e-05 s⁻¹.

B2 gave a kon of 1710 M⁻¹ s⁻¹.

molecular target: T1, HIV-1 YU2 gp120; test: ELISA

In the case of B1, the IC50 is reported as 68 ± 8 nM.

molecular target: T1, HIV-1 YU2 gp120; test: SPR; remark: another data set of the same source

In order of rising koff:
1. B4  3.3e-05 s⁻¹
2. B12  9.4e-05 s⁻¹
3. B7  0.000103 s⁻¹
4. B6  0.000122 s⁻¹
5. B11  0.000145 s⁻¹
6. B9  0.000156 s⁻¹
7. B8  0.000173 s⁻¹
8. B10  0.000191 s⁻¹
9. B13  0.000232 s⁻¹
10. B3  0.000368 s⁻¹
11. B1  0.000445 s⁻¹
12. B5  0.00061 s⁻¹

In order of falling kon:
1. B3  9180 M⁻¹ s⁻¹
2. B1  4160 M⁻¹ s⁻¹
3. B13  3240 M⁻¹ s⁻¹
4. B11  2990 M⁻¹ s⁻¹
5. B10  2960 M⁻¹ s⁻¹
6. B5  2020 M⁻¹ s⁻¹
7. B4  1880 M⁻¹ s⁻¹
8. B8  1660 M⁻¹ s⁻¹
9. B9  1490 M⁻¹ s⁻¹
10. B7  980 M⁻¹ s⁻¹
11. B12  880 M⁻¹ s⁻¹
12. B6  710 M⁻¹ s⁻¹

In order of falling Kd:
1. B5  360 nM
2. B6  180 nM
3. B7  130 nM
4. B8  120 nM
5. B12  101 nM
6. B9  100 nM
7. B13  77 nM
8. B10  72 nM
9. B11  52 nM
10. B3  45 nM
11. B4  21 nM

In order of falling “k1 (step 1, association)” value:
1. B3  1.73e+06 M⁻¹ s⁻¹
2. B5  340000 M⁻¹ s⁻¹
3. B13  340000 M⁻¹ s⁻¹
4. B4  310000 M⁻¹ s⁻¹
5. B10  290000 M⁻¹ s⁻¹
6. B11  290000 M⁻¹ s⁻¹
7. B9  240000 M⁻¹ s⁻¹
8. B8  180000 M⁻¹ s⁻¹
9. B12  160000 M⁻¹ s⁻¹
10. B7  110000 M⁻¹ s⁻¹
11. B6  90000 M⁻¹ s⁻¹

In order of rising “k2 (step 2, forward)” value:
1. B12  0.0041 M⁻¹ s⁻¹
2. B3  0.0048 M⁻¹ s⁻¹
3. B5  0.0049 M⁻¹ s⁻¹
4. B4  0.0051 M⁻¹ s⁻¹
5. B13  0.0055 M⁻¹ s⁻¹
6. B9  0.0063 M⁻¹ s⁻¹
7. B7  0.0075 M⁻¹ s⁻¹
8. B11  0.0076 M⁻¹ s⁻¹
9. B6  0.0077 M⁻¹ s⁻¹
10. B8  0.0082 M⁻¹ s⁻¹
11. B10  0.0089 M⁻¹ s⁻¹

In order of rising “k-1 (step 1, dissociation)” value:
1. B4  0.03 s⁻¹
2. B7  0.045 s⁻¹
3. B11  0.05 s⁻¹
4. B6  0.051 s⁻¹
5. B12  0.053 s⁻¹
6. B13  0.058 s⁻¹
7. B8  0.064 s⁻¹
8. B10  0.071 s⁻¹
9. B9  0.078 s⁻¹
10. B3  0.16 s⁻¹
11. B5  0.244 s⁻¹

In order of falling “k-2 (step 2, reverse)” value:
1. B13  0.0041 s⁻¹
2. B11  0.0029 s⁻¹
3. B8  0.0027 s⁻¹
4. B10  0.0027 s⁻¹
5. B5  0.0025 s⁻¹
6. B6  0.0024 s⁻¹
7. B3  0.0023 s⁻¹
8. B7  0.0023 s⁻¹
9. B9  0.002 s⁻¹
10. B12  0.00178 s⁻¹
11. B4  0.0011 s⁻¹

molecular target: T1, HIV-1 YU2 gp120; test: ITC

In order of falling Kd:
1. B1  225 ± 10 nM
2. B4  75 ± 11 nM

In order of rising “stoichiometry N” value:
1. B1  1.29 ± 0.04 protein:gp120
2. B4  1.31 ± 0.132 protein:gp120
